Source: the supplement of paper PMC11246515
± gives the standard deviation of the averaged measurements.

Test: total protein half-life in vivo (active degradation + dilution); higher = more stable protein
[1] = E. coli NCM3722 delta-clpP delta-lon delta-hslV, growth: N-lim chemostat, doubling time 6 h
[2] = E. coli NCM3722 delta-clpP, growth: N-lim chemostat, doubling time 6 h
[3] = E. coli NCM3722 delta-hslV, growth: N-lim chemostat, doubling time 6 h
[4] = E. coli NCM3722 delta-lon, growth: N-lim chemostat, doubling time 6 h
[5] = E. coli NCM3722 delta-smpB, growth: N-lim chemostat, doubling time 6 h
[6] = wild type E. coli NCM3722, growth: C-lim chemostat, doubling time 3 h
[7] = wild type E. coli NCM3722, growth: C-lim chemostat, doubling time 6 h
[8] = wild type E. coli NCM3722, growth: C-lim chemostat, doubling time 12 h
[9] = wild type E. coli NCM3722, growth: N-lim chemostat, doubling time 6 h
[10] = wild type E. coli NCM3722, growth: N-lim chemostat, doubling time 12 h
[11] = wild type E. coli NCM3722, growth: P-lim chemostat, doubling time 6 h
[12] = wild type E. coli NCM3722, growth: P-lim chemostat, doubling time 12 h

Sequence | total protein half-life in vivo [1] [h] | total protein half-life in vivo [2] [h] | total protein half-life in vivo [3] [h] | total protein half-life in vivo [4] [h] | total protein half-life in vivo [5] [h] | total protein half-life in vivo [6] [h] | total protein half-life in vivo [7] [h] | total protein half-life in vivo [8] [h] | total protein half-life in vivo [9] [h] | total protein half-life in vivo [10] [h] | total protein half-life in vivo [11] [h] | total protein half-life in vivo [12] [h]
MNNSAFTFQTLHPDTIMDALFEHGIRVDSGLTPLNSYENRVYQFQDEDRRRFVVKFYRPERWTADQILEEHQFALQLVNDEVPVAAPVAFNGQTLLNHQGFYFAVFPSVGGRQFEADNIDQMEAVGRYLGRMHQTGRKQLFIHRPTIGLNEYLIEPRKLFEDATLIPSGLKAAFLKATDELIAAVTAHWREDFTVLRLHGDCHAGNILWRDGPMFVDLDDARNGPAVQDLWMLLNGDKAEQRMQLETIIEAYEEFSEFDTAEIGLIEPLRAMRLVYYLAWLMRRWADPAFPKNFPWLTGEDYWLRQTATFIEQAKVLQEPPLQLTPMY [P0C0K3] | 3.88 ± 0.5 | 5.41 ± 1.8 | 4.37 ± 0.62 | 4.43 ± 0.29 | 4.22 ± 0.26 | 2.99 ± 0.046 | 5.38 ± 0.61 | 10.3 ± 1.3 | 4.23 ± 0.21 | 6.67 ± 0.66 | 6.02 ± 0.38 | 10.3 ± 0.64
MNNSRLFRLSRIVIALTAASGMMVNTANAKEEAKAATQYTQQVNQNYAKSLPFSDRQDFDDAQRGFIAPLLDEGILRDANGKVYYRADDYKFDINAAAPETVNPSLWRQSQINGISGLFKVTDKMYQVRGQDISNITFVEGEKGIIVIDPLVTPPAAKAALDLYFQHRPQKPIVAVIYTHSHTDHYGGVKGIISEADVKSGKVQVIAPAGFMDEAISENVLAGNIMSRRALYSYGLLLPHNAQGNVGNGLGVTLATGDPSIIAPTKTIVRTGEKMIIDGLEFDFLMTPGSEAPAEMHFYIPALKALCTAENATHTLHNFYTLRGAKTRDTSKWTEYLNETLDMWGNDAEVLFMPHTWPVWGNKHINDYIGKYRDTIKYIHDQTLHLANQGYTMNEIGDMIKLPPALANNWASRGYYGSVSHNARAVYNFYLGYYDGNPANLHPYGQVEMGKRYVQALGGSARVINLAQEANKQGDYRWSAELLKQVIAANPGDQVAKNLQANNFEQLGYQAESATWRGFYLTGAKELREGVHKFSHGTTGSPDTIRGMSVEMLFDFMAVRLDSAKAAGKNISLNFNMSNGDNLNLTLNDSVLNYRKTLQPQADASFYISREDLHAVLTGQAKMADLVKAKKAKIIGNGAKLEEIIACLDNFDLWVNIVTPN | – | – | – | – | – | – | – | 11.5 | – | 11.3 | – | –
MNNTPRYPQRVRNDLRFRELTVLRVERISAGFQRIVLGGEALDGFTSRGFDDHSKLFFPQPDAHFVPPTVTEEGIVWPEGPRPPSRDYTPLYDELRHELAIDFFIHDGGVASGWAMQAQPGDKLTVAGPRGSLVVPEDYAYQLYVCDESGMPALRRRLETLSKLAVKPQVSALVSVRDNACQDYLAHLDGFNIEWLAHDEQAVDARLAQMQIPADDYFIWITGEGKVVKNLSRRFEAEQYDPQRVRAAAYWHAK | 4.98 ± 0.54 | 3.77 ± 0.45 | 4.7 ± 0.13 | 5.34 ± 0.58 | 4.11 ± 1.2 | 3.36 ± 0.12 | 6.21 ± 1.1 | 9.46 ± 0.69 | 4.38 ± 0.69 | 7.07 | 5.663 ± 0.053 | 12.1 ± 0.45
MNPERSERIEIPVLPLRDVVVYPHMVIPLFVGREKSIRCLEAAMDHDKKIMLVAQKEASTDEPGVNDLFTVGTVASILQMLKLPDGTVKVLVEGLQRARISALSDNGEHFSAKAEYLESPTIDEREQEVLVRTAISQFEGYIKLNKKIPPEVLTSLNSIDDPARLADTIAAHMPLKLADKQSVLEMSDVNERLEYLMAMMESEIDLLQVEKRIRNRVKKQMEKSQREYYLNEQMKAIQKELGEMDDAPDENEALKRKIDAAKMPKEAKEKAEAELQKLKMMSPMSAEATVVRGYIDWMVQVPWNARSKVKKDLRQAQEILDTDHYGLERVKDRILEYLAVQSRVNKIKGPILCLVGPPGVGKTSLGQSIAKATGRKYVRMALGGVRDEAEIRGHRRTYIGSMPGKLIQKMAKVGVKNPLFLLDEIDKMSSDMRGDPASALLEVLDPEQNVAFSDHYLEVDYDLSDVMFVATSNSMNIPAPLLDRMEVIRLSGYTEDEKLNIAKRHLLPKQIERNALKKGELTVDDSAIIGIIRYYTREAGVRGLEREISKLCRKAVKQLLLDKSLKHIEINGDNLHDYLGVQRFDYGRADNENRVGQVTGLAWTEVGGDLLTIETACVPGKGKLTYTGSLGEVMQESIQAALTVVRARAEKLGINPDFYEKRDIHVHVPEGATPKDGPSAGIAMCTALVSCLTGNPVRADVAMTGEITLRGQVLPIGGLKEKLLAAHRGGIKTVLIPFENKRDLEEIPDNVIADLDIHPVKRIEEVLTLALQNEPSGMQVVTAK [P0A9M0] | 3.09 | 6.54 ± 0.34 | 4.728 ± 0.026 | – | 4.49 ± 0.13 | 2.889 ± 0.0043 | 5.944 ± 0.036 | 11.2 ± 0.36 | 4.74 ± 0.17 | 6.68 ± 0.68 | 5.58 ± 0.2 | 10.7 ± 0.49
MNPIVINRLQRKLGYTFNHQELLQQALTHRSASSKHNERLEFLGDSILSYVIANALYHRFPRVDEGDMSRMRATLVRGNTLAELAREFELGECLRLGPGELKSGGFRRESILADTVEALIGGVFLDSDIQTVEKLILNWYQTRLDEISPGDKQKDPKTRLQEYLQGRHLPLPTYLVVQVRGEAHDQEFTIHCQVSGLSEPVVGTGSSRRKAEQAAAEQALKKLELE [P0A7Y0] | 5.33 ± 0.47 | 4.64 ± 0.1 | 5.21 ± 0.87 | 5.08 ± 0.24 | 4.72 ± 0.15 | 2.85 ± 0.21 | 5.54 ± 0.24 | 8.37 ± 0.68 | 4.85 ± 0.54 | 7.78 ± 0.17 | 5.51 ± 0.21 | 11.4 ± 0.34
MNPVDRPLLDIGLTRLEFLRISGKGLAGLTIAPALLSLLGCKQEDIDSGTVGLINTPKGVLVTQRARCTGCHRCEISCTNFNDGSVGTFFSRIKIHRNYFFGDNGVGSGGGLYGDLNYTADTCRQCKEPQCMNVCPIGAITWQQKEGCITVDHKRCIGCSACTTACPWMMATVNTESKKSSKCVLCGECANACPTGALKIIEWKDITV [P0AAL6] | – | – | – | – | – | – | – | > 16 | – | – | – | –
MNPVPAQREYFLDSIRAWLMLLGIPFHISLIYSSHTWHVNSAESSLWLTLFNDFIHSFRMQVFFVISGYFSYMLFLRYPLKKWWKVRVERVGIPMLTAIPLLTLPQFIMLQYVKGKAESWPGLSLYDKYNTLAWELISHLWFLLVLVVMTTLCVWIFKRIRNNLENSDKTNKKFSMVKLSVIFLCLGIGYAVIRRTIFIVYPPILSNGMFNFIVMQTLFYLPFFILGALAFIFPHLKALFTTPSRGCTLAAALAFVAYLLNQRYGSGDAWMYETESVITMVLGLWMVNVVFSFGHRLLNFQSARVTYFVNASLFIYLVHHPLTLFFGAYITPHITSNWLGFLCGLIFVVGIAIILYEIHLRIPLLKFLFSGKPVVKRENDKAPAR | > 8 | 5.18 | – | – | 6.23 | – | – | – | – | 9.69 | 7.05 | > 16
MNQFYVHVRLFEDTAEQTKKFEELMLNFLYQKTVKESDDSCCRLIPEGYILKSTMNCQQILDQTFSIANSAGVDANIFVCKFEQSACLLPSASLVGNDFVHYDLTPKPIKLDS | 5.47 ± 0.25 | – | – | – | – | – | – | – | – | – | – | –
MNQIFMVIFLVLSGFIVGNVWSDRGWQKKWAERDAAALSQEVNAQFAARIIEQGRTIARDEAVKDAQQKSAEISARAAYLSDSVNQLRAEAKKYAIRLDAAKHTADLAAAVRGKTTKTAEGMLTNMLGDIAAEAQLYAEIADERYIAGVTCQQIYESLRDKKHQM | – | – | – | – | – | – | – | – | – | – | – | 9.42
